Results reported in patent publication US20020127539A1, “Assays for identifying receptors having alterations in signaling” (priority 2000, published 2002).
Where a chain is given by its changes, count along the chain named.

T1: CCK-BR (Homo sapiens, UniProt P32239, L325E)
T1 sequence (P32239 1-447 L325E): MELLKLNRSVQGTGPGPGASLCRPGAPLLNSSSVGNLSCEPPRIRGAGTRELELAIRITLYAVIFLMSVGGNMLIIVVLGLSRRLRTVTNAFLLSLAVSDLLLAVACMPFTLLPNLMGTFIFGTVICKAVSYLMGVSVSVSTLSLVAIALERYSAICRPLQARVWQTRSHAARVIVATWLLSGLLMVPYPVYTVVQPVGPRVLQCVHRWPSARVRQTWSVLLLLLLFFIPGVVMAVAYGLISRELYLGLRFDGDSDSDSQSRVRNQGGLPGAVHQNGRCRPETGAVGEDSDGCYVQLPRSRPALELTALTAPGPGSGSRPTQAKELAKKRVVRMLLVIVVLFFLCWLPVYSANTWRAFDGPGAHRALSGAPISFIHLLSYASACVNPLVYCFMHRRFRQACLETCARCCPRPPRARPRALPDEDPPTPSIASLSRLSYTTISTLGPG

B1: Leu325Glu CCK-BR mutant: human CCK-BR with point mutation Leu325Glu, constitutively active (protein, UniProt P32239 1-447, looked up, variant L325E)
Gastrin/cholecystokinin type …: T1 sequence (P32239 1-447 L325E)
B2: Asn150Ala rat mu opioid receptor: rat mu opioid receptor with Asn to Ala point mutation at position 150 of SEQ ID NO: 1 (protein, UniProt P33535 1-398, looked up, variant N150A)
Mu-type opioid receptor: MDSSTGPGNTSDCSDPLAQASCSPAPGSWLNLSHVDGNQSDPCGLNRTGLGGNDSLCPQTGSPSMVTAITIMALYSIVCVVGLFGNFLVMYVIVRYTKMKTATNIYIFNLALADALATSTLPFQSVNYLMGTWPFGTILCKIVISIDYYAMFTSIFTLCTMSVDRYIAVCHPVKALDFRTPRNAKIVNVCNWILSSAIGLPVMFMATTKYRQGSIDCTLTFSHPTWYWENLLKICVFIFAFIMPVLIITVCYGLMILRLKSVRMLSGSKEKDRNLRRITRMVLVVVAVFIVCWTPIHIYVIIKALITIPETTFQTVSWHFCIALGYTNSCLNPVLYAFLDENFKRCFREFCIPTSSTIEQQNSTRVRQNTREHPSTANTVDRTNHQLENLEAETAPLP
B3: wild-type rat mu opioid receptor: wild-type rat mu opioid receptor expressed from an expression vector in HEK293 cells (protein, UniProt P33535 1-398, looked up)
Mu-type opioid receptor: B2 Mu-type opioid receptor with A150N

Experiments:
[1] = target: T1, CCK-BR; test: SMS-Luc luciferase reporter assay in HEK293 cells; format: cell-based; parameters: expressed in transfected cells; host or cells: HEK293; settings: FIG. 2
Source text: HEK293 cells were transfected (as described above) with SMS-Luc and an expression vector encoding any one of pcDNA1, wild-type CCK-BR, or Leu325Glu CCK-BR.

[2] = target: T1, CCK-BR; parameters: expressed in transfected cells; host or cells: COS-7; settings: COS-7, absence of agonist; cited from earlier work
[3] = test system: rat mu opioid receptor; test: SRE-Luc/Gq5i luciferase reporter assay in HEK293 cells; format: cell-based; settings: HEK293, SRE + Gq5i; for Average Ligand Stimulated Activity (Light Emission): ligand DAMGO; for Average Basal Activity (Light Emission): no ligand
Procedure: (§1) Reagents & Solutions: The cell culture media used in the assays described below was Gibco BRL #12100-046. This media was made according to manufacturer's recipe, pH adjusted to 7.2, filtered (0.22 micron pore), and supplemented with 1% Pen/Strep (Gibco #15140-122; 100% penicillin G 10,000 units/ml, and streptomycin 10,000 μg/ml) and 10% fetal bovine serum. Cell culture media lacking 10% fetal bovine serum was also generated. DNA used in the transfection experiments was purified and quantitated by measuring the absorbance at OD260. A LucLite Luciferase Assay Kit (Packard) was used to quantitate luciferase activity. Transfections were carried out using LipofectAMINE Reagent (Gibco #18324-012).
(§2) Constitutive activity of the Asn150Ala mutant rat mu opioid receptor was assessed using a luciferase assay. The rat mu opioid receptor is a Gαi coupled receptor. Therefore we chose to use the Gq5i reporter system, described in detail above (Broach and Thorner, supra), which switches the signaling pathway from Gαi to Gαq for reliable positive readout. HEK293 cells were transfected with the reporter construct SRE-Luc, an expression vector containing nucleic acid encoding Gq5i (Broach and Thorner, supra), and an expression vector containing nucleic acid encoding either the wild-type or the Asn150Ala mutant rat mu opioid receptor. Basal and ligand-stimulated luciferase activity was measured. The ligand used in this assay was [D-Ala^2-MePhe^4, Gly-ol^5]enkephalin] (DAMGO). As a negative control, HEK293 cells were transfected with pcDNA1 (empty vector DNA), SRE-Luc, and the expression vector containing nucleic acid encoding Gq5i (Broach and Thorner, supra).
(§3) The luciferase assay was carried out as follows. On day 1, HEK293 cells in a T75 flask were washed with 15 ml serum-free media (or PBS), trypsinized with 5 ml 0.05% trypsin-EDTA (Gibco #25300-062), incubated at 37° C. for 3 minutes at which time 6-7 ml complete HEK293 media (Gibco #12100-046) and 10% Fetal Bovine Serum (Intergen #1050-90) were added. Thereafter, cells were collected in 50 ml centrifuge tubes, pelleted at 800-900 rpm (RCF ˜275), and resuspend in 20 ml complete media. The cells were counted using a haemocytometer and diluted to 85,000 cells/ml in complete media. Using a repeat pipettor or cell plater, 100 μl of cells were added to each well of a Primaria 96-well plate (Falcon #353872). Cells were then incubated at 37° C., 5% CO2 until use at 48 hours.
(§4) On day 3, cells were transfected using LipofectAMINE™ according to the manufacturer's protocol (Gibco #18324-012, Rockville, Md.).
(§5) On day 4, cells were stimulated as follows. Ligands for the receptor, either DAMGO or a non-peptide ligand (e.g., naltrexene or nalonin), were diluted to a desired concentration in serum-free media containing 0.15 mM PMSF (or other protease inhibitor(s)). The transfection media was then completely removed from cells and 50-100 μl stimulation media (i.e., media containing candidate ligands or the corresponding ligand free solvent) was added to each well. The cells were incubated for the desired time (standard is overnight) at 37° C., 5% CO2, although the optimal stimulation time may vary depending on the particular receptor used. The optimal incubation time may be determined systematically by testing a range of incubation times and determining which one yields the highest level of stimulation. For concomitant assessment of two ligands (e.g., ligand induced inhibition of forskolin stimulated CRE activity) each stimulus is prepared at two times the desired final concentration and mixed in equal volumes prior to addition to cells.
(§6) On day 5, an assay for luciferase expression was carried out according to the manufacturer's instructions (Packard, Meridin, Conn.)

[4] = target: T2, rat mu opioid receptor (Rattus norvegicus, UniProt P33535, N150A); test: as above; format: cell-based
T2 construct: expressed in transfected cells; host or cells: HEK293
Procedure: as §1, §2, §3, §4, §5, §6

[5] = target: T2, rat mu opioid receptor; test: CRE-Luc luciferase reporter assay with forskolin stimulation; format: cell-based; settings: 0.5 μM forskolin; a decrease means more Gαi signaling
Source text: Similarly, a constitutively active rat mu opioid receptor was identified using a reporter construct sensitive to Gαi coupling (see FIG. 3). The response element employed in this assay was the cAMP-response element (CRE), which is sensitive to Gαi mediated changes in intracellular levels of cAMP. Signaling through the rat mu opioid receptor via Gαi inhibits adenylate cyclase, causing a decrease in intracellular cAMP. Therefore, an increase in rat mu opioid receptor signaling induces a decrease in CRE mediated reporter activity.
Prior to the present invention, Gαi-mediated decreases in intracellular cAMP were measured by (1) stimulating cells with forskolin, which causes receptor-independent activation of adenylate cyclase and generates an intracellular pool of cAMP; (2) stimulating the cells with ligand; and (3) measuring the ligand-induced, receptor-dependent Gαi-mediated decrease in the intracellular cAMP pool (e.g., using a radioimmunoassay (e.g., New England Nuclear, Boston, Mass.)). […] The basal (and ligand-induced) level of receptor activity was then measured using a standard luciferase assay (see FIG. 3). Coexpression of the receptor of interest with a luciferase reporter gene construct allows one to measure light emission as a readout for basal signaling.

Molecule	basal level activity compared to wild-type CCK-BR [1]	constitutive production of inositol phosphates [2]	Average Ligand Stimulated Activity (Light Emission) [3]	Average Basal Activity (Light Emission) [3]	basal activity relative to the maximal level of ligand-stimulated second messenger signaling [4]	stimulation of basal level activity (increase in basal activity vs wild-type) ([4]; HEK293, SRE + Gq5i, listed as Asn150Ala mutant mu opioid receptor)	basal CRE-Luc reporter activity compared to wild-type receptor [5]
B1	increased basal level activity	levels exceeding wild-type CCK-BR	–	–	–	–	–
B2	–	–	86,996	*56,498	exceeded 50%	approximately 6.5 fold	reduction in basal activity
B3	–	–	87,461	8,436	–	–	–
